In patent US20150344570A1 (published 2015):

B1: GpH7-B3 variant Y296_09D/GpL16-k0 (antibody, human IgG1, kappa)
heavy: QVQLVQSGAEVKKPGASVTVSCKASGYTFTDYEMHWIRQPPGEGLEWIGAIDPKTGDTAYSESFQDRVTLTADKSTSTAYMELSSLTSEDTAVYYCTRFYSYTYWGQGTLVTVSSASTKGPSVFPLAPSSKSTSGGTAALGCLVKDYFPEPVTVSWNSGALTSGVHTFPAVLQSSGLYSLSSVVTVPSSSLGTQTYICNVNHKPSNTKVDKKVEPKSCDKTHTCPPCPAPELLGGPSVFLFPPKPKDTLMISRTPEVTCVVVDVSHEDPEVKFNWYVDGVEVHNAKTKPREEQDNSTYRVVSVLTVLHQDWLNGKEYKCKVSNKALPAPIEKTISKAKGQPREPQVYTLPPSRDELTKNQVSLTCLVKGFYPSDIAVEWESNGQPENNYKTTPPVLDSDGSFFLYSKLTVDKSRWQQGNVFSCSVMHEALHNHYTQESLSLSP
light: DIVMTQSPLSLPVTPGEPASISCQASESLVHSNRNTYLHWYLQKPGQSPQLLIYKVSNRFSGVPDRFSGSGSGTDFTLKISRVEAEDVGVYYCSQNTHVPPTFGQGTKVEIERTVAAPSVFIFPPSDEQLKSGTASVVCLLNNFYPREAKVQWKVDNALQSGNSQESVTEQDSKDSTYSLSSTLTLSKADYEKHKVYACEVTHQGLSSPVTKSFNRGEC
notes: also called Ho Ab
B2: GpH7-B3 variant S337_20W/GpL16-k0 (antibody, human IgG1, kappa)
heavy: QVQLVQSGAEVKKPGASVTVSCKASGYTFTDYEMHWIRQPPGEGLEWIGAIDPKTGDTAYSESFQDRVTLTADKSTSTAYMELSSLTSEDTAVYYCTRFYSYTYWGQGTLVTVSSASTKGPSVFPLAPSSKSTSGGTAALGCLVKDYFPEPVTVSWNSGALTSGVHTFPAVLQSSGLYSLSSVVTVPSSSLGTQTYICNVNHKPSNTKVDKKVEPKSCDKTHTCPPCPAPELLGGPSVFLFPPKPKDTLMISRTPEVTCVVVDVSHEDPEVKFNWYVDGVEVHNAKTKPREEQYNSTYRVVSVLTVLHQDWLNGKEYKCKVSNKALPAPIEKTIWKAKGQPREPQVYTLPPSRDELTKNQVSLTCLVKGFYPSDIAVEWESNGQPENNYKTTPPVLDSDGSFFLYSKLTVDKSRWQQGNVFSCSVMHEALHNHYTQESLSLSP
light: DIVMTQSPLSLPVTPGEPASISCQASESLVHSNRNTYLHWYLQKPGQSPQLLIYKVSNRFSGVPDRFSGSGSGTDFTLKISRVEAEDVGVYYCSQNTHVPPTFGQGTKVEIERTVAAPSVFIFPPSDEQLKSGTASVVCLLNNFYPREAKVQWKVDNALQSGNSQESVTEQDSKDSTYSLSSTLTLSKADYEKHKVYACEVTHQGLSSPVTKSFNRGEC
notes: also called Ho Ab
B3: GpH7-B3 variant T335_01G/GpL16-k0 (antibody, human IgG1, kappa)
heavy: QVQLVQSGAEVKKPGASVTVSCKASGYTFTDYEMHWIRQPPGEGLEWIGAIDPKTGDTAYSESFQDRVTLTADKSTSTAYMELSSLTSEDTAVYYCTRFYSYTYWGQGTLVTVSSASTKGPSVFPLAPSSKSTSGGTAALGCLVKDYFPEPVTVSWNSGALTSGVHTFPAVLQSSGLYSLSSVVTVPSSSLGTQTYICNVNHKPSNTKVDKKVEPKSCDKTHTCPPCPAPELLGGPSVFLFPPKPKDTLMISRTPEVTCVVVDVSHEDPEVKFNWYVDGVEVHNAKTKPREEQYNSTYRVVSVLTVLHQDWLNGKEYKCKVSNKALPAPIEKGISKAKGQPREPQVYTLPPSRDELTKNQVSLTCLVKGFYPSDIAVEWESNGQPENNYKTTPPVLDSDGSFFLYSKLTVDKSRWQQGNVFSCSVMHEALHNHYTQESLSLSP
light: DIVMTQSPLSLPVTPGEPASISCQASESLVHSNRNTYLHWYLQKPGQSPQLLIYKVSNRFSGVPDRFSGSGSGTDFTLKISRVEAEDVGVYYCSQNTHVPPTFGQGTKVEIERTVAAPSVFIFPPSDEQLKSGTASVVCLLNNFYPREAKVQWKVDNALQSGNSQESVTEQDSKDSTYSLSSTLTLSKADYEKHKVYACEVTHQGLSSPVTKSFNRGEC
notes: also called Ho Ab
B4: GpH7-B3 variant Y296_06M/GpL16-k0 (antibody, human IgG1, kappa)
heavy: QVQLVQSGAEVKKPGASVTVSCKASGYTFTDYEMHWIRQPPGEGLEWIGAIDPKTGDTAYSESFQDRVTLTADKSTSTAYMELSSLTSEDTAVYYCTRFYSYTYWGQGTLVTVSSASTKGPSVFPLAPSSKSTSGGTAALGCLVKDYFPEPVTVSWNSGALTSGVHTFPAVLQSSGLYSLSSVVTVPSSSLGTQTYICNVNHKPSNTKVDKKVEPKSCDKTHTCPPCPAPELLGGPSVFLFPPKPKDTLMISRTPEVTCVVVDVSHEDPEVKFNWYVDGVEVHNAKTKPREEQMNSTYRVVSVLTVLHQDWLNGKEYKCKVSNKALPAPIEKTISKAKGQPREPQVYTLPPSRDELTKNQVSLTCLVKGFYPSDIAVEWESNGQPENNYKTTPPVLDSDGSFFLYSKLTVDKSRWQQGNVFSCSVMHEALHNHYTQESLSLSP
light: DIVMTQSPLSLPVTPGEPASISCQASESLVHSNRNTYLHWYLQKPGQSPQLLIYKVSNRFSGVPDRFSGSGSGTDFTLKISRVEAEDVGVYYCSQNTHVPPTFGQGTKVEIERTVAAPSVFIFPPSDEQLKSGTASVVCLLNNFYPREAKVQWKVDNALQSGNSQESVTEQDSKDSTYSLSSTLTLSKADYEKHKVYACEVTHQGLSSPVTKSFNRGEC
notes: also called Ho Ab
B5: GpH7-B3 variant T335_02A/GpL16-k0 (antibody, human IgG1, kappa)
heavy: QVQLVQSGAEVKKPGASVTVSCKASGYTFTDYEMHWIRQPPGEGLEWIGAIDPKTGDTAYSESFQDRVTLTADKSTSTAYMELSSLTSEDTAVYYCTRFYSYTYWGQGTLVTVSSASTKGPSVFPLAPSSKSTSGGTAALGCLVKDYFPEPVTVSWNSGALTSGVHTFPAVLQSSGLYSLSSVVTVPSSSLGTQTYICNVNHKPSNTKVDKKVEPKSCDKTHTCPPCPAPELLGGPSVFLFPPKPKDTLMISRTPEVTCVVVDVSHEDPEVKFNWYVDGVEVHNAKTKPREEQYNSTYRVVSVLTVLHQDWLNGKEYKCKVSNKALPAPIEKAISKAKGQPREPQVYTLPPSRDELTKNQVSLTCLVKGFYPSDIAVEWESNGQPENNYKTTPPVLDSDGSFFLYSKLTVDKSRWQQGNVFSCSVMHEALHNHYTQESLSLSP
light: DIVMTQSPLSLPVTPGEPASISCQASESLVHSNRNTYLHWYLQKPGQSPQLLIYKVSNRFSGVPDRFSGSGSGTDFTLKISRVEAEDVGVYYCSQNTHVPPTFGQGTKVEIERTVAAPSVFIFPPSDEQLKSGTASVVCLLNNFYPREAKVQWKVDNALQSGNSQESVTEQDSKDSTYSLSSTLTLSKADYEKHKVYACEVTHQGLSSPVTKSFNRGEC
notes: also called Ho Ab
B6: GpH7-B3 variant T335_20W/GpL16-k0 (antibody, human IgG1, kappa)
heavy: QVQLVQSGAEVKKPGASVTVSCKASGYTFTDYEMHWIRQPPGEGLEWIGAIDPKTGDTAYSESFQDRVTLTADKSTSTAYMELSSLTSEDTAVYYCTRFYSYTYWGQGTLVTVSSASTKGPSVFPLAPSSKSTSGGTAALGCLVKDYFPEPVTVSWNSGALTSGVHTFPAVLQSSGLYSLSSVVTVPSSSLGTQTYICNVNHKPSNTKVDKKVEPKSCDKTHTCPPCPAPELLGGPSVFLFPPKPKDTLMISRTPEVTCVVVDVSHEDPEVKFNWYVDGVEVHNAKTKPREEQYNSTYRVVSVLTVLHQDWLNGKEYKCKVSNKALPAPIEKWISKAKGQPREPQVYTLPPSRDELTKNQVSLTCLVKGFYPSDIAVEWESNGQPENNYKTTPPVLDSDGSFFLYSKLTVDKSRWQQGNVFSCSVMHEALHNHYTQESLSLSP
light: DIVMTQSPLSLPVTPGEPASISCQASESLVHSNRNTYLHWYLQKPGQSPQLLIYKVSNRFSGVPDRFSGSGSGTDFTLKISRVEAEDVGVYYCSQNTHVPPTFGQGTKVEIERTVAAPSVFIFPPSDEQLKSGTASVVCLLNNFYPREAKVQWKVDNALQSGNSQESVTEQDSKDSTYSLSSTLTLSKADYEKHKVYACEVTHQGLSSPVTKSFNRGEC
notes: also called Ho Ab
B7: GpH7-B3 variant T335_05P/GpL16-k0 (antibody, human IgG1, kappa)
heavy: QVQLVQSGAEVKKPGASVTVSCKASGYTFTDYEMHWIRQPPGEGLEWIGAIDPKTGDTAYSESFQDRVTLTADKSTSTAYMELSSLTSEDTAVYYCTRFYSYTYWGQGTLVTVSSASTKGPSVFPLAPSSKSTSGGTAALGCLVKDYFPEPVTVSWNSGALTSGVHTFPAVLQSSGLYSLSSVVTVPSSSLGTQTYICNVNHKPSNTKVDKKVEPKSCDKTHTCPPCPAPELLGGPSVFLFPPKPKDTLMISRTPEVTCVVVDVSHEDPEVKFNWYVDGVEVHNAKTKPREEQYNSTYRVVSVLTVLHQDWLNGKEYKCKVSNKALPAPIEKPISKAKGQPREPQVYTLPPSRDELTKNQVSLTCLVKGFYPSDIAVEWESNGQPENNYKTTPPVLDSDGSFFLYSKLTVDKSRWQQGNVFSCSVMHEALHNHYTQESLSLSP
light: DIVMTQSPLSLPVTPGEPASISCQASESLVHSNRNTYLHWYLQKPGQSPQLLIYKVSNRFSGVPDRFSGSGSGTDFTLKISRVEAEDVGVYYCSQNTHVPPTFGQGTKVEIERTVAAPSVFIFPPSDEQLKSGTASVVCLLNNFYPREAKVQWKVDNALQSGNSQESVTEQDSKDSTYSLSSTLTLSKADYEKHKVYACEVTHQGLSSPVTKSFNRGEC
notes: also called Ho Ab
B8: GpH7-B3 variant T335_10E/GpL16-k0 (antibody, human IgG1, kappa)
heavy: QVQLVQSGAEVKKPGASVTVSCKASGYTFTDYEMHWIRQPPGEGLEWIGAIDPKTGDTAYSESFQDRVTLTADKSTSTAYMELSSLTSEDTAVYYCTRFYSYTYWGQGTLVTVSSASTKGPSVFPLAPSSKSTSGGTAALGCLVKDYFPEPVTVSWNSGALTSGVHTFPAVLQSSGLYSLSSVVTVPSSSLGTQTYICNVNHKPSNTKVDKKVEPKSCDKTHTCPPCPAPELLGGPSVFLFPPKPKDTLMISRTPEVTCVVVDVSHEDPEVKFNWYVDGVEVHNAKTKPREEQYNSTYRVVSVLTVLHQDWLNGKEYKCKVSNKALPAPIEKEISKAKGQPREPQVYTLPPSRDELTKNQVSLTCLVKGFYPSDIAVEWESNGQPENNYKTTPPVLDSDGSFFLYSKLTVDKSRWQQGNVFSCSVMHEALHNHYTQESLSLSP
light: DIVMTQSPLSLPVTPGEPASISCQASESLVHSNRNTYLHWYLQKPGQSPQLLIYKVSNRFSGVPDRFSGSGSGTDFTLKISRVEAEDVGVYYCSQNTHVPPTFGQGTKVEIERTVAAPSVFIFPPSDEQLKSGTASVVCLLNNFYPREAKVQWKVDNALQSGNSQESVTEQDSKDSTYSLSSTLTLSKADYEKHKVYACEVTHQGLSSPVTKSFNRGEC
notes: also called Ho Ab
B9: GpH7-B3 variant Y296_07I/GpL16-k0 (antibody, human IgG1, kappa)
heavy: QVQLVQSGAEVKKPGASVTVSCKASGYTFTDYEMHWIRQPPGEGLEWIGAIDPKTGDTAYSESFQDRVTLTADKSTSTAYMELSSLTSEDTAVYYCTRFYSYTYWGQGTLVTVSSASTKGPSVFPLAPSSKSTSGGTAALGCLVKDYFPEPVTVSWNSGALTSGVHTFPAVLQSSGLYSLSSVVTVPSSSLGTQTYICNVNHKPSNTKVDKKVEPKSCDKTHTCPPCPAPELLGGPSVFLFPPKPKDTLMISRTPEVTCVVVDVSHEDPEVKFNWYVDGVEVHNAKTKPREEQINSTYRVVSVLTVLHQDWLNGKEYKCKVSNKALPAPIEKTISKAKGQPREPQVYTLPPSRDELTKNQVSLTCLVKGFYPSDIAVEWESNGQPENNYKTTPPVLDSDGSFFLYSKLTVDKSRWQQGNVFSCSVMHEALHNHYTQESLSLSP
light: DIVMTQSPLSLPVTPGEPASISCQASESLVHSNRNTYLHWYLQKPGQSPQLLIYKVSNRFSGVPDRFSGSGSGTDFTLKISRVEAEDVGVYYCSQNTHVPPTFGQGTKVEIERTVAAPSVFIFPPSDEQLKSGTASVVCLLNNFYPREAKVQWKVDNALQSGNSQESVTEQDSKDSTYSLSSTLTLSKADYEKHKVYACEVTHQGLSSPVTKSFNRGEC
notes: also called Ho Ab
B10: GpH7-B3 variant T335_19Q/GpL16-k0 (antibody, human IgG1, kappa)
heavy: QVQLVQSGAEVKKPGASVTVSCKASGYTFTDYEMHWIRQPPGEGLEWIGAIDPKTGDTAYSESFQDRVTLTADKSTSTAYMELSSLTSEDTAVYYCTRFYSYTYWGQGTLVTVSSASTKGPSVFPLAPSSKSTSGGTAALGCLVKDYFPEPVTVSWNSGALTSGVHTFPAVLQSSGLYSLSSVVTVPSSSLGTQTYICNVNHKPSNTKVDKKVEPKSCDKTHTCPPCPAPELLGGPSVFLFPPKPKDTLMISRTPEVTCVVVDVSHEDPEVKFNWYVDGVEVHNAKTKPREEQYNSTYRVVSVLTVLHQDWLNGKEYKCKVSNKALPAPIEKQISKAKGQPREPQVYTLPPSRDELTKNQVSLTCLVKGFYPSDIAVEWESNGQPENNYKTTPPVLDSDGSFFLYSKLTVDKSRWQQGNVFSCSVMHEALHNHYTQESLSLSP
light: DIVMTQSPLSLPVTPGEPASISCQASESLVHSNRNTYLHWYLQKPGQSPQLLIYKVSNRFSGVPDRFSGSGSGTDFTLKISRVEAEDVGVYYCSQNTHVPPTFGQGTKVEIERTVAAPSVFIFPPSDEQLKSGTASVVCLLNNFYPREAKVQWKVDNALQSGNSQESVTEQDSKDSTYSLSSTLTLSKADYEKHKVYACEVTHQGLSSPVTKSFNRGEC
notes: also called Ho Ab
B11: GpH7-B3 variant S337_19Q/GpL16-k0 (antibody, human IgG1, kappa)
heavy: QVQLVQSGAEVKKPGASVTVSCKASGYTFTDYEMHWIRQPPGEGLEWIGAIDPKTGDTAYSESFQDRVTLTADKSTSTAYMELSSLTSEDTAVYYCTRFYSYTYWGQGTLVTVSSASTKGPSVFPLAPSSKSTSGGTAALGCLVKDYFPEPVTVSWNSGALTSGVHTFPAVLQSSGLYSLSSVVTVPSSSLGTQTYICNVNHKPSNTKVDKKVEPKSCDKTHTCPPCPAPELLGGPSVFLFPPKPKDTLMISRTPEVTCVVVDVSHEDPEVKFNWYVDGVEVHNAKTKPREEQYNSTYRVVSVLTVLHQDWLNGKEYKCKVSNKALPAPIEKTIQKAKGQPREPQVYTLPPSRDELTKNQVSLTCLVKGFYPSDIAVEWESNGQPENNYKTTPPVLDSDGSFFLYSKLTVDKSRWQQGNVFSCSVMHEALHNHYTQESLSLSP
light: DIVMTQSPLSLPVTPGEPASISCQASESLVHSNRNTYLHWYLQKPGQSPQLLIYKVSNRFSGVPDRFSGSGSGTDFTLKISRVEAEDVGVYYCSQNTHVPPTFGQGTKVEIERTVAAPSVFIFPPSDEQLKSGTASVVCLLNNFYPREAKVQWKVDNALQSGNSQESVTEQDSKDSTYSLSSTLTLSKADYEKHKVYACEVTHQGLSSPVTKSFNRGEC
notes: also called Ho Ab

Target: T1, FcγRIIa R (FcγRIIa, allotype with Arg at position 131), extracellular domain with C-terminal His tag (human, UniProt P12318 34-217)
T1 construct: extracellular domain; also called FcγRIIa R type; 2aR
T1 sequence (looked up): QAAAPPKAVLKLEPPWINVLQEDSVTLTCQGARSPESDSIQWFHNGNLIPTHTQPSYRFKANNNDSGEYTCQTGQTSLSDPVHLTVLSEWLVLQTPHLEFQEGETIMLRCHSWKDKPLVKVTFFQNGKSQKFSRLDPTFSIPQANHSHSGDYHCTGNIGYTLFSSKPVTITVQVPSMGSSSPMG
Test: SPR (Biacore), antibody captured on antigen peptide chip, FcγR as analyte; relative binding
Experimental: Analysis of interaction between objective antibody and the FcγR was carried out using Biacore T100 (GE Healthcare). HBS-EP+ (GE Healthcare) was used as the running buffer, and the measurement temperature was set to 25° C. Chips produced by immobilizing the antigen peptide by the amine coupling method to a Series S Sencor Chip CM5 (GE Healthcare), or alternatively, chips produced by allowing preliminarily biotinylated antigen peptides to interact with and immobilize onto a Series S Sensor Chip SA (certified) (GE Healthcare) were used. Antibodies of interest were captured onto an antigen peptide-immobilized chip, and allowed to interact to each FcγR diluted with running buffer. To regenerate and repeatedly use the chip, the antibodies captured on the chip were washed off by reacting 10 mM glycine-HCl, pH 1.5.

Binder	Ho/Con_2aR
B1	94.5 % of GpH7-B3/GpL16-k0 (=100)
B2	105 % of GpH7-B3/GpL16-k0 (=100)
B3	97.7 % of GpH7-B3/GpL16-k0 (=100)
B4	84 % of GpH7-B3/GpL16-k0 (=100)
B5	102 % of GpH7-B3/GpL16-k0 (=100)
B6	101 % of GpH7-B3/GpL16-k0 (=100)
B7	104 % of GpH7-B3/GpL16-k0 (=100)
B8	109 % of GpH7-B3/GpL16-k0 (=100)
B9	83.1 % of GpH7-B3/GpL16-k0 (=100)
B10	102 % of GpH7-B3/GpL16-k0 (=100)
B11	102 % of GpH7-B3/GpL16-k0 (=100)
